B1: TM2 R104EK141E: TM2 mutant, arginine 104 and lysine 141 each replaced with glutamic acid; SEQ ID NO: 16 (protein)
chain: MSDVQSSLTGTWYNELNSKMELTANKDGTLTGKYLSKVGDVYVPYPLSGRYNLQPPAGQGVALGWAVSWENSKIHSATTWSGQFFSESSPVILTQWLLSSSTAEGDVWESTLVGNDSFTKTAPTEQQIAHAQLHCRAPRLE
modifications: Synthetic TM2 R104EK141E

What was measured:
[1] = target: T1, tamavidin 2 (TM2), wild type, SEQ ID NO: 2, Pleurotus cornucopiae (Pleurotus cornucopiae, UniProt B9A0T7); assay: Biacore 3000 iminobiotin binding test (Example 2); settings: Iminobiotin-BSA analyte, protein immobilized, pH 11, 25° C.
T1 sequence (B9A0T7 1-141): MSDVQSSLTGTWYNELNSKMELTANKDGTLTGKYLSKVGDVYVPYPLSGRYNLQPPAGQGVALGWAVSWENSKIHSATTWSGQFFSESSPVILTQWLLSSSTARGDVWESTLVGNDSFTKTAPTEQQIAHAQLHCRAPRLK
Description: These samples were diluted with 10 mM acetate buffer (pH 5, Biacore) into about 50 μg/mL.
Immobilization was performed at 25° C. and a flow rate of 10 μL/min using HBS-EP (Biacore) as a running buffer. The TM2 and the TM2 mutant (about 4000 to 8000 RU) were immobilized on CM5 sensor chips (Biacore) by amine coupling. The activating time was set to 10 minutes.
The specific interaction was measured using iminobiotin BSA as an analyte (a material flowing in a flow channel) at 25° C. and a flow rate of 20 μL/min and using a CAPS buffer (50 mM CAPS, 150 mM NaCl, 0.005% Tween 20, pH 11) as the running buffer. Iminobiotin BSA was produced as follows: A highly purified BSA (Sigma, 2 mg) and NHS-iminobiotin (Pierce, 1 mg) were dissolved in 50 mM sodium borate (pH 8.0, 1 mL), followed by incubation at 4° C. for 2 hours. […] Subsequently, the iminobiotin-BSA produced by the process described above was similarly measured with the same flow cell.
Each constant of samples showing interaction was calculated using analysis software BIAevaluation ver. […] The dissociation constant (KD) was determined from kd/ka. […] Accordingly, in the analysis, the Rmax was calculated by conducting local fitting for each concentration, and only the results at concentrations (mainly 18.75 to 75 nM) approximated to the 1:1 (Langmuir) binding model were employed.

[2] = Isoelectric focusing electrophoresis (pI observed); type: physicochemical; settings: pH 3 to 10 gel
Description: The isoelectric point of each low-pI TM2 was measured by isoelectric focusing electrophoresis using an XCell SureLock Mini-Cell (Invitrogen). In accordance with the instruction, each low-pI TM2 (500 ng) and an IEF sample buffer (pH 3 to 10 (2×), Invitrogen) were mixed and were added to a polyacrylamide gel (pH 3 to 10, IEF Gel, Invitrogen) at a pH ranging from 3 to 10, followed by electrophoresis at a variable voltage of 100 V for 1 hour, 200 V for 1 hour, and 500 V for 45 minutes in this order.
After the electrophoresis, the gel was shaken in a blotting buffer (0.7% acetic acid) for 10 minutes and then was transferred onto a PVDF membrane at 10 V for 1 hour using an XCell ll Blot Module (Invitrogen). The PVDF membrane was subjected to reaction with anti-TM2 rabbit antibody (PCT/W2006/326260) serving as a primary antibody and with alkaline phosphate-labeled anti-rabbit IgG antibody (BIO-RAD) serving as a secondary antibody, followed by detection of bands with Alkaline Phosphatase Substrate Kit II
The isoelectric point of the high-affinity TM2 was measured by isoelectric focusing electrophoresis using an XCell SureLock Mini-Cell (Invitrogen). […] The electric point of TM2 D40N having replacement of the […] amino acid was higher than that of the wild type TM2 also in the isoelectric focusing electrophoresis.
The isoelectric point of HALU TM2 was measured by isoelectric focusing electrophoresis using an XCell SureLock Mini-Cell (Invitrogen). In accordance with the instruction, bands of each HALU TM2 (4 μg) were detected by CBB staining. […] The observed isoelectric point of TM2 D40N was 9.7, and was reduced to 8.9 after introduction of mutation of R104E and was reduced to 7.3 to 7.5 after further introduction of mutation of K141E.

human serum protein = assay: Non-specific adsorption of low-pI TM2 to human serum protein-immobilized magnetic beads; type: binding
Description: In this embodiment, non-specific binding to human serum was investigated as non-specific adsorption of low-pI TM2 to serum protein-immobilized magnetic beads. Specifically, in order to investigate the non-specific binding of low-pI TM2, the amount of low-pI TM2 adsorbed to magnetic beads to which human serum protein was covalently bonded was measured. TM2 K26A, TM2 K73Q, TM2 R104E, TM2 K141E, and TM2 R104EK141E, which were highly expressed in Escherichia coli, were used as the low-pI TM2 to be investigated.
Human serum protein and magnetic beads were bound to each other as follows. Magnetic beads having surfaces coated with carboxyl groups (Dynabeads M-270 Carboxylic Acid, Dynal, 210 μL) were washed with 0.01 N sodium hydroxide (210 μL) for 10 minutes and then with ultrapure water (210 μL) for 10 minutes three times. To the washed magnetic beads, 1-ethyl-3-(3-dimethylaminopropyl)carbodiimide hydrochloride (EDC, PIERCE) dissolved in cooled ultrapure water was added into a final concentration of 0.2 M, and the mixture was shaken at room temperature for 30 minutes. Then, the magnetic beads were washed with cooled ultrapure water (210 μL) and then with 50 mM MES buffer (pH 5.0, 210 μL).
To the magnetic beads, 1 mg/mL human serum protein (CHEMICON, 210 μL) dialyzed with 50 mM MES buffer (pH 5.0) was added. The mixture was shaken at room temperature for 30 minutes to covalently bind the human serum protein to the magnetic beads. The magnetic beads were collected with a magnet to remove the supernatant. The unreacted active groups on the beads were eliminated with 50 mM tris buffer (pH 7.0, 210 μL), and then the magnetic beads were blocked with a PBS buffer (420 μL) containing 0.5% BSA and 0.1% Tween 20. The magnetic beads were suspended in a PBS buffer (210 μL) to obtain human serum protein-immobilized magnetic beads.
The magnetic beads (7 μL) and 0.56 μg/mL of each low-pI TM2 (100 μL) were mixed for reaction at room temperature for 1 hour. The magnetic beads were collected with a magnetic, and the supernatant was removed. After washing with 20 mM potassium phosphate buffer (500 μL) containing 500 mM sodium chloride, the magnetic beads were mixed with 20 μL of 2×SDS sample buffer (250 mM Tris-HCl, pH 6.8, 20% 2-mercaptoethanol, 20% SDS, 20% glycerol), followed by heating at 95° C. for 20 minutes to dissociate the low-pI TM2 from the magnetic beads.
This sample was subjected to SDS-PAGE and then western blotting analysis to determine the amount of the low-pI TM2. Anti-tamavidin 2 rabbit antibody and alkaline phosphatase-labeled anti-rabbit IgG goat antibody were used as the primary antibody and the secondary antibody, respectively. The bands were detected with Alkaline Phosphatase Substrate Kit II <VECTOR Black> (VECTRO) and were quantified with Las-3000 (FUJIFILM).

Salmon sperm DNA = assay: Non-specific binding to DNA (membrane-adsorbed DNA, biotinylated HRP, ECL); settings: salmon sperm DNA 10 μg to 1 μg on membrane, 25 μg/mL protein
Description: Salmon sperm DNA diluted stepwise from 10 μg to 1 μg with 2×SSC buffer was denatured with an alkali and was adsorbed to Hybond N+membrane (Amersham Biosciences) using Bio-Dot SF (BIO-RAD). After blocking the membrane with 5×Denhardt's solution (0.1% BSA, 0.1% ficoll, 0.1% polyvinylpyrrolidone), the membrane was immersed in 25 μg/mL of low-pI TM2 or the wild-type TM2 at room temperature for 90 minutes. Then, the membrane was washed with a TUBS buffer (TBS buffer containing 0.05% Tween 20) at room temperature for 5 minutes three times. The membrane was blocked with a TBS buffer containing 3% skimmed milk and 0.1% Tween 20 for 1 hour. The membrane was subjected to a reaction with biotinylated horseradise peroxidase (Vector) diluted 5000 times with a TBS buffer containing 3% skimmed milk and 0.1% Tween 20 at room temperature for 1 hour. The membrane was washed with a TBS buffer containing 0.1% Tween 20 again and was then shaken in a solution that is a mixture of reagent 1 and reagent 2 of ECL (Amasham) in the same volumes, followed by detection of the luminol reaction with Las-3000 (FUJIFILM).
The non-specific binding of HALU TM2 to DNA was analyzed by the process in paragraph 1-11) of Example 1.

| Molecule | kon ([1]; read-out: binding rate constant (ka)) [M⁻¹ s⁻¹] | koff ([1]; read-out: dissociation rate constant (kd)) [s⁻¹] | pI observed [2] | decrease of adsorption to human serum protein compared to the wild type TM2 (human serum protein; FIG. 1) [%] | non-specific binding to human serum protein compared to TM2 (human serum protein; FIG. 1) | Non-specific binding of serum protein (%) (human serum protein; wild type TM2 = 100) | Non-specific binding of DNA (Salmon sperm DNA) |
| --- | --- | --- | --- | --- | --- | --- | --- |
| N=C1N[C@H]2[C@H](CS[C@H]2CCCCC(=O)O)N1 [iminobiotin] | 130000 ± 5e+09 | 0.0013 ± 6e-07 | – | – | – | – | – |
| B1 | – | – | 6.2 | 70 | significantly low | 25 | lower than the detection limit |
